The values that follow come from the nanobody polyreactivity screen of Harvey et al. (2022).

The data set can be described thus: yeast display, Sf9 membrane polyspecificity reagent, FACS + sequencing; frameworks hold sequencing errors. The method in brief: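 Polyreactivity labels are assigned by the sorting gate from which each nanobody was recovered. The gates were low and high (top ~1%), set on anti-HA fluorescence for expression and streptavidin fluorescence for reagent binding. Before sorting, galactose-induced (36–48 hours) yeast display cells were stained for 1 hour at 4 °C with 10% biotinylated, detergent-solubilized Sf9 membrane reagent.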
In the case of “QVQLVESGGGLVQAGGSLRLSCAASGSIFFLYAMGWYRQATGKEREFVAAITGTADSTYYADSVKGRFTISRDDAKNTVYLQMNSLNPEDTAVYYCATDYWSSVKLDDYWGQGTQVTVSS”, the “polyreactivity (PSR sort gate)” value is “low polyreactivity”. As for “QVQLVESGGGLVQAGGSLRLSCAASGSIFFPNAMGWYRQAPGKERELVAAISWSGDSTYADSVKGRFTISRDNAKNTVYLQMNSLKPEETAVYSCAAVYLWWSYEFDYWGQGTHVTVSS”, the “polyreactivity (PSR sort gate)” value is “low polyreactivity”. For the sequence “QVQLVESGGGLVQAGGSLRLSCAASGSIFFPYAMGWYRQAPGKERELVAAISQSAGSTFYADSVKGRFTISRDNAKHTVYLQKNSLKPEDTAVYYCAKSGDADFYYTYYYWGQGTQVTVSS”, the “polyreactivity (PSR sort gate)” value was “low polyreactivity”.

Turning to “QVQLVESGGGLVQAGGSLRLSCAASGSIFFPYAMGWYRQATGKERELVASINSGGITTYADSVKGRFTISRDNAKNTVYLQMNSLKPEDTAVYYCARYVSYRWVRYNYWGQGTQVTVSS”, the “polyreactivity (PSR sort gate)” value is given as “high polyreactivity”.

With “QVQLVESGGGLVQAGGSLRLSCAASGSIFFPYLMGWYRQAPGKERELVAAITYRAGSTYYADSVKGRFTISRDNAKNTVYLQMNSLKPEDTAVYYCAAVVSRSGEFGYWGQGTQVTVSS”, the “polyreactivity (PSR sort gate)” value is “low polyreactivity”. For the sequence “QVQLVESGGGLVQAGGSLRLSCAASGSIFFRYTMGWSRQAPGTERELVAAITGSGGSTYYADSVKGRFTISRDNAKNTVYLQMNSLKTEDTAVYYCARPGWGRYEYWGQGTQVTVSS”, the “polyreactivity (PSR sort gate)” value was “high polyreactivity”. In the case of “QVQLVESGGGLVQAGGSLRLSCAASGSIFFSNAMGWYRQAPGKERELVAAITSSGASTYYADSVKGRFTISRDNAKNTVYLQMNSLKPEDTAVYYCAVVGRGKRYGYWGQGTQVTVSS”, the “polyreactivity (PSR sort gate)” value is “high polyreactivity”. With “QVQLVESGGGLVQAGGSLRLSCAASGSIFFSNAMGWYRQAPGKERELVAVITYSGGGTYYADSVKGRFTISRDNAKNTVYLQMNSLKPEDTAVYYCNTDLGPDGISWHWYAYDYWGQGTQVTVSS” the entry was “low polyreactivity”; with “QVQLVESGGGLVQAGGSLRLSCAASGSIFFSYAMGWYIQAPGKERELVAAITSSVDSTYYADSVKGRFTISRDNAKNTVYLQMNSLKPEDTAVYYCAARYRSGYYRYDYWGQGTQVTVSS”, “low polyreactivity”; with “QVQLVESGGGLVQAGGSLRLSCAASGSIFFSYAMGWYRQAPGKERELVAAIDYSGGGTYYADSVKGRFTISRDNAKNTVYLQMNSLKPEDTAVYYCNSDTEVWAVTFISYRALNYWGQGTQVTVSS”, “low polyreactivity”. As to “QVQLVESGGGLVQAGGSLRLSCAASGSIFFSYAMGWYRQAPGKERELVASISSGVSTNYADSEKGRFTISRDNAKNTVYLQMNSLKPEDTAVYYFAAYYRGWSSSYWYPAYNYWGQGTQVTVSS”, the “polyreactivity (PSR sort gate)” value was “low polyreactivity”. Turning to “QVQLVESGGGLVQAGGSLRLSCAASGSIFFVNAMGWYRQAPGKERELVAGITGGGSTYYADSVKGRFTISRDNAKNTVYLQMNSLKPEDTAVYYCNKKAYRKTGMDYWGQGTQVTVSS”, the “polyreactivity (PSR sort gate)” value was “low polyreactivity”. In the case of “QVQLVESGGGLVQAGGSLRLSCAASGSIFFYNTMGWYRQAPGKERELVAAISASGGRTYYADSVKGRFTISRDNAKNTVYLQMNSLKPEDTAVYYCAVRVPYRGYTRYDYWGQGTQVTVSS” it was “high polyreactivity”; in that of “QVQLVESGGGLVQAGGSLRLSCAASGSIFFYYAMGWYRQAPGKERELVAAIRSGTSTNYADSVKGRFTISRDNAKNTVYLQMNSLKPEDTAVYYCAARFPGGGYGMDYWGQGTKVTVSS”, “low polyreactivity”; in that of “QVQLVESGGGLVQAGGSLRLSCAASGSIFFYYAMGWYRQAPGKERELVAAITKIGVGTFYADSVKGRFTISRDNAKNTVYLQMNSLKPEDTAVYYCNARTAWEGYDYWGQGTQVTVSS”, “low polyreactivity”. In the case of “QVQLVESGGGLVQAGGSLRLSCAASGSIFFYYAMGWYRQAPGKERELVAAITSSGDSTYYADSVKGRFTISRDNAKNTVYLQMNSLKPEDTAVYYCAALYIGYTGYYYWGQGTQVSVSS”, the “polyreactivity (PSR sort gate)” value is reported as “low polyreactivity”. In the case of “QVQLVESGGGLVQAGGSLRLSCAASGSIFFYYAMGWYRQAPGKERELVATINWSGGSTYYADSVKGRFTISRDNAKNTVYLQMNSLKPEDTAVYYCAAKDITLPGTMDSWGQGTQVTVSS”, the “polyreactivity (PSR sort gate)” value was “low polyreactivity”. In the case of “QVQLVESGGGLVQAGGSLRLSCAASGSIFFYYTMGWYRQAPGKERELVAAISDSGGSTYYADSVKGRFTISRDNAKNTVYLQMNSLKPEDTAVYYCAAADWFTVLESERVDYWGQGTQVTVSS” it was “low polyreactivity”; in that of “QVQLVESGGGLVQAGGSLRLSCAASGSIFFYYVMGWYRQAPGKERELVAVISSGGGSTYYADSVKGRFTISRDNAKNTVYLQMNSLKPEDTAVYYCAAGTYYKFYYWGQGTQVTVSS”, “high polyreactivity”.

Turning to “QVQLVESGGGLVQAGGSLRLSCAASGSIFGANAMGWYRQAPGKERELVAAISTRGGRTYYADSVKGRFTISRDNAKNTVYLQMNSLKPEDTAVYYCATSGGRPYKYEYWGQGTQVTVSS”, the “polyreactivity (PSR sort gate)” value is on record as “high polyreactivity”. Turning to “QVQLVESGGGLVQAGGSLRLSCAASGSIFGAYAMGWYRQAPGKERELVAAISGSGTSTYYADSVKGRFTISRDNAKNTVYLQMNSLKPEDTAVYYCAADGTYFYLYLGDRFDYWGQGTQVTVSS”, the “polyreactivity (PSR sort gate)” value is recorded as “low polyreactivity”. For the sequence “QVQLVESGGGLVQAGGSLRLSCAASGSIFGAYAMGWYRQAPGKERELVASITGNGGSTYYADSVKGRFTISRDNAKNTVYLQMNSLKPEDTAVYDCAADDYSTRYRWFYYGSPYYYWGQGTQVTVSS”, the “polyreactivity (PSR sort gate)” value is “high polyreactivity”. In the case of “QVQLVESGGGLVQAGGSLRLSCAASGSIFGAYAMGWYRQAPGKERELVATITLRDGSTYYADSVKGRFTISRDNAKNTVYLQMNSLKPEDTAVYYCATYYSAINYGWSNTILYDYWGQGTQVTVSS”, the “polyreactivity (PSR sort gate)” value was “low polyreactivity”. As to “QVQLVESGGGLVQAGGSLRLSCAASGSIFGAYAMGWYRQAPGKETELVASITGNGGSTYYADSVKGRFTISRDNAKNTVYLQMNSLKPEDTAVYYCAADDYSTRYRWFYYGSPYYYWGQGTQVTVSS”, the “polyreactivity (PSR sort gate)” value is “high polyreactivity”. “QVQLVESGGGLVQAGGSLRLSCAASGSIFGAYAMGWYRQAPGKEWELVAAISWRDGSTYYADSVKGRFTISRDNAKNTVYLQMNCLKPEDTAVYYCAAEYVYIFYDSYYWGQGTQVTVSS”: the “polyreactivity (PSR sort gate)” value was “high polyreactivity”. As to “QVQLVESGGGLVQAGGSLRLSCAASGSIFGDNAMGWYRQAPGKERELVAAISIVGSTSYADSVKGRFTISRDNAKNTVYLPMNSLKPEDTAVYYCAAETVRSDTGFDYWGQGTQVTVSS”, the “polyreactivity (PSR sort gate)” value is listed as “low polyreactivity”. Take “QVQLVESGGGLVQAGGSLRLSCAASGSIFGDNAMGWYRQAPGKERELVARISSGGNTYYADSVKGRFTISRDNAKNTVYLQMNSLKPEDTAVYYCAAAIKVSYKKFPYYYWGQGTQVTVSS”: the “polyreactivity (PSR sort gate)” value is given as “high polyreactivity”. Take “QVQLVESGGGLVQAGGSLRLSCAASGSIFGDNAMGWYRQAPGKERELVASITWSGGSTFYADSVKGRFTISRDNAKNTVYLQMNSLKPEDTAVYYCNADYAESPYFYLLLDYWGQGTQVTVSS”: the “polyreactivity (PSR sort gate)” value is “low polyreactivity”. “QVQLVESGGGLVQAGGSLRLSCAASGSIFGDNTMGWYRQAPGKERELVAAISWRGGSTYYADSVKGRFTISRDNAKNTVYLQMNSLKPEDTAVYYCIGGPGGYDYWGQGTQVTVSS”: the “polyreactivity (PSR sort gate)” value is listed as “low polyreactivity”.

With “QVQLVESGGGLVQAGGSLRLSCAASGSIFGDNTRGWYRQAPGKERELVAAISWRGGSTYYADSVKGRFTISRDNSKNTVYLQMNSLKPEDTAVYYCIGGPGGYDYWGQGTQVTVSS”, the “polyreactivity (PSR sort gate)” value is “low polyreactivity”.

Take “QVQLVESGGGLVQAGGSLRLSCAASGSIFGDYAMGWYRQAPGKERELVAAITWSGGSTTYADSVKGRFTISRDNAKNTVYLQMNSLKPEDTAVYCCAVYGWRFYSYDDYFDFNYWGQGTQVTVSS”: the “polyreactivity (PSR sort gate)” value was “low polyreactivity”. Turning to “QVQLVESGGGLVQAGGSLRLSCAASGSIFGDYARGWYRQAPGKERELVAAISRSGGSTSYADSVKGRFTISRDNAKNTVYLQMNSLKPEDSAVYYCAAYWQRFGYDYWGQGTQVSVSS”, the “polyreactivity (PSR sort gate)” value is reported as “low polyreactivity”. As for “QVQLVESGGGLVQAGGSLRLSCAASGSIFGENAMGGYRQAPGKERELVAAITSGGSTDYADSVKGRFTISRDNAKNTVYLQMNSLKPEDTAVYYCAASGRVGPGYWYDSWGQGTQVTVSS”, the “polyreactivity (PSR sort gate)” value is listed as “low polyreactivity”. Consider “QVQLVESGGGLVQAGGSLRLSCAASGSIFGFNAMGWYRQAPGKEREFVAVISNRGGSTYYADSVKGRFTISRDNAKNTVYLQMNSLKPEDTAVYYCAARPYRDSGYWGQGTQVTVSS”, for which the “polyreactivity (PSR sort gate)” value is given as “high polyreactivity”.

In the case of “QVQLVESGGGLVQAGGSLRLSCAASGSIFGFNAMGWYRQAPGKERELVAAITNSGVRTYYADSVKGRFTISRDNAKNTVYLQMNSLKPEDTAVYYCAAEPDTYWYTYDYWGQGTQVTVSS”, the “polyreactivity (PSR sort gate)” value is reported as “low polyreactivity”. In the case of “QVQLVESGGGLVQAGGSLRLSCAASGSIFGFYAMGWYRQAPGKEREFVASISDSSGSTYYADSVKGRFTISRDNAKNTVYLQMNSLKPEDTAVYYCNARVNYRWPYSWRYYWGQGTQVTVSS” it was “high polyreactivity”. As for “QVQLVESGGGLVQAGGSLRLSCAASGSIFGFYAMGWYRQAPGKERELVASINWSGGSTYYADSVKGRFTISRDNAKNTVYLQMNSLKPEDTAVYYCNADQYHWYDYWGQGTQVTVSS”, the “polyreactivity (PSR sort gate)” value is “low polyreactivity”. For “QVQLVESGGGLVQAGGSLRLSCAASGSIFGGDGMGWYRQAPGKERQLVAAITSGSSTYYADSVKGRFTISRDNAKNTVYLQLNILKPEDTAVYYCAARPYPHSAYEGDYWGRGTQVTVSS”, the “polyreactivity (PSR sort gate)” value is “low polyreactivity”. In the case of “QVQLVESGGGLVQAGGSLRLSCAASGSIFGGYAMGWSRQAPGNERELVASISISGGSTYYADSVKGRFTISRDNAKNTVYLQMNRLKPEDTAGYYCATDRTTTLNSPYGDPDRDDYWGQGTQVTVSS” it was “low polyreactivity”; in that of “QVQLVESGGGLVQAGGSLRLSCAASGSIFGGYAMGWYRQAPGKERELVAAISSGGSTYYADSVKGRFTISRDNAKNTVYLQMNSLKPEDTAVYYCNADRGNWWDYGRAYGYDYWGQGTQVTVSS”, “low polyreactivity”; in that of “QVQLVESGGGLVQAGGSLRLSCAASGSIFGGYGMGSYRQAPGKERELVAAITSGSSTYYADSVKGRFTISRDNAKNTVYLQMNSLKPEDTAVYYCAARPYPHSAYEGDYWGRGTQVTVSS”, “low polyreactivity”.
